The values that follow come from patent publication US20190352411A1 (ALLIGATOR BIOSCIENCE, published 2019).

The target of assay [1] is T1, cynomolgus CD137 (ELISA, Example 15) (cynomolgus, UniProt A9YYE7 24-186).
T1 construct: Reagent not described; also called cyno CD137
The assay can be described thus: ELISA, cynomolgus CD137.

Assay [2] deals with T2, recombinant human CD137-Fc (R&D #838-4B) (human, UniProt Q07011 24-186).
T2 construct: Bought protein coated on ELISA plates; also called CD137 (R&D #838-4B); not shown: Fc part of the commercial fusion protein; not described
The assay can be described thus: ELISA, coated human CD137-Fc. In general terms: In an ELISA, binding on a coated surface is turned into a signal by an enzyme label.

The target of assay [3] is T2, recombinant human CD137-Fc (R&D #838-4B). As to the kind of experiment: ELISA, coated CD137 (R&D #838-4B).
The target of assay [4] is T3, cynomolgus CD137 on transfected CHO cells (CHO-cyCD137) (cynomolgus (Macaca fascicularis); human).
T3 construct: extracellular domain;domain: transmembrane and intracellular part; also called cyno CD137
The assay can be described thus: flow cytometry; EC50 on CHO-cyCD137 against EC50 on CHO-huCD137. The procedure:
(§1) Binding and EC50 was determined using flow cytometric of CHO cells transfected with human CD137, cynomolgus CD137 or empty vector. The extracellular part of human or cynomolgus CD137 was fused to the transmembrane and intracellular part of human CD40 and cloned into pcDNA3.1. The vector was subsequently stably transfected into CHO cells. […] CD137-transfected and empty vector-transfected cells were incubated with CD137 antibodies for at least 1 h at 4° C. to saturate the binding. In order to minimize antibody internalization, 0.05% sodium azide was used in the incubation buffer and all work was performed on ice. The CD137 antibodies were detected using PE-conjugated anti-hIgG antibody (109-115-098, Jackson Immunoresearch laboratories), incubated for 30 min at 4° C. Directly after staining the cells were fixed with a paraformaldehyde solution (10× concentrate BD CellFIX, BD biosciences #340181). Cells were analyzed by flow cytometry using FACSVerse (BD Biosciences). The median fluorescence intensity (MFI) for each sample was determined and the dose response data was analysed using Graph Pad Prism.
(§2) MFI data was normalized for each antibody, where 0% is defined as the lowest value and 100% is the highest value in the dose titration for each antibody.
Background: In flow cytometry, cells or beads pass a laser one at a time.

In assay [5] the target is T4, 1550: Human CD137 with mouse domains 1, 2A and 2B (aa 24-86) (human; mouse, UniProt P20334 24-85).
T4 construct: domain: domains 1, 2A and 2B (aa 24-86); Human/mouse chimera transiently expressed on FreeStyle 293-F cells; Limits of the human pieces are worked out from the printed aa range
The assay can be described thus: flow cytometry on transfected 293-F cells, human/mouse CD137 chimera. As to the method:
(§3) The ability of each antibody to bind to a panel of human/mouse CD137 chimeras expressed on the surface of transfected cells was analyzed by flow cytometry.
(§4) The chimeras were designed by exchanging domains or modules of the human CD137 with the corresponding mouse domain. Genes of CD137 human/mouse chimeras were synthesized (GenScript) and constructs cloned into pcDNA3.1 vector (Invitrogen) and transiently transfected into FreeStyle 293-F cells (Invitrogen). The transfected cells were incubated with CD137 antibodies and control antibodies, followed by incubation with anti-human IgG-PE (Jackson Immunoresearch) for detection and analyzed with FACS Verse (BD Biosciences). Binding to the different chimeric constructs was calculated as relative MFI compared to the binding of the isotype control, followed by normalization to the full-length human CD137 construct to minimize the effect of affinity differences between individual antibodies.

Assay [6] concerns the target T5, 1551: Human CD137 with mouse domains 2A, 2B and 3A (aa 47-96) (human; mouse, UniProt P20334 46-95).
T5 construct: domain: domains 2A, 2B and 3A (aa 47-96); Human/mouse chimera transiently expressed on FreeStyle 293-F cells
The assay is described as above. As to the method: as §3, §4

Assay [7] addresses T6, 1552: Human CD137 with mouse domains 2B, 3A and 3B (aa 64-118) (human; mouse, UniProt P20334 63-117).
T6 construct: Human/mouse chimera transiently expressed on FreeStyle 293-F cells
The assay is described as above. The procedure: as §3, §4

Assay [8] deals with T7, 1553: Human CD137 with mouse domains 3A, 3B and 4A (aa 87-133) (human; mouse, UniProt P20334 86-133).
T7 construct: domain: domains 3A, 3B and 4A (aa 87-133); Human/mouse chimera transiently expressed on FreeStyle 293-F cells
The assay is described as above. The procedure: as §3, §4

In assay [9] the target is T8, 1554: Human CD137 with mouse domains 3B, 4A and 4B (aa 97-159) (human; mouse, UniProt P20334 96-159).
T8 construct: domain: domains 3B, 4A and 4B (aa 97-159); Human/mouse chimera transiently expressed on FreeStyle 293-F cells
The description is as above. As to the method:
as §3, §4

Assay [10] deals with T9, 1555: Human CD137 with mouse domains 1 and 4B and region of unknown function (aa 24-46 and aa 139-186) (human; mouse, UniProt P20334 24-45; P20334 139-185).
T9 construct: Human/mouse chimera transiently expressed on FreeStyle 293-F cells
The assay is described as above. As to the method:
as §3, §4

In assay [11] the target is T10, human CD137 on transfected CHO cells (CHO-huCD137) (human).
T10 construct: domain: transmembrane and intracellular part
The assay can be described thus: flow cytometry on CHO-huCD137 cells; 95% confidence interval of the EC50. As to the method: as §1, §2

In assay [12] the target is T11, Human CD137 (R&D systems) (human, UniProt Q07011 24-186, limits assumed).
T11 construct: also called CD137 coated on the chip surface
As to the kind of experiment: SPR (Biacore), human CD137 immobilised, bivalent antibody as analyte, 1:1 Langmuir model. The procedure:
Human CD137 (R&D systems) was immobilized to the Biacore™ sensor chip, CMS, using conventional amine coupling. […] The association was followed for 5 minutes and the dissociation for 15 minutes. Regeneration was performed twice using 10 mM Glycine pH 1.7 for 30 seconds. The kinetic parameters and the affinity constants were calculated using 1:1 Langmuir model.
The affinities of the antibodies were in the nanomolar to sub-nanomolar range (Table 3) measured using bivalent antibodies flowed over CD137 coated on the chip surface.

T11 sequence (Q07011 24-186 limits assumed): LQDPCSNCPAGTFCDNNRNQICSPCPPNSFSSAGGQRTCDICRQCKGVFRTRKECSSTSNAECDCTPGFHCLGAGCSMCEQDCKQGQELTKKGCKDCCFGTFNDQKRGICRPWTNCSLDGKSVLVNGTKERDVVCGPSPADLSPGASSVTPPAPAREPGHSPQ
T2 sequence (Q07011 24-186 limits assumed): as above
T8 sequence (P20334 other isoform, or with tags, fused parts or gaps limits assumed): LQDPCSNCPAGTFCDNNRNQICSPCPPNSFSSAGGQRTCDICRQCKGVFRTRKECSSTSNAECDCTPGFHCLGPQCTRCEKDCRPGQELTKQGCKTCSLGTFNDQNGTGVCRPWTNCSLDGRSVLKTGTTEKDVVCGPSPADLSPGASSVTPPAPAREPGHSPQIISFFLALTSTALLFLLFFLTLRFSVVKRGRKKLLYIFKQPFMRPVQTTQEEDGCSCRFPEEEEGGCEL
T1 sequence (A9YYE7 entry or part of it): as the sequence (Q07011 24-186 limits assumed) above, with P4L, N19S, R50K, T66I, P67S, F69Y, G75E, V149A counted along it
T3 sequence (P25942 other isoform, or with tags, fused parts or gaps): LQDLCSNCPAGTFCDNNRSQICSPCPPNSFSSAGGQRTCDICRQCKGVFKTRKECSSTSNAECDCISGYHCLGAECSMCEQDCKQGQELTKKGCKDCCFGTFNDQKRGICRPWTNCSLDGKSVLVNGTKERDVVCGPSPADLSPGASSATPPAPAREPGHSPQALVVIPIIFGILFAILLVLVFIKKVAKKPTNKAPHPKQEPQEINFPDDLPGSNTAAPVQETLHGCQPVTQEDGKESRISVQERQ
T9 sequence (P20334 other isoform, or with tags, fused parts or gaps limits assumed): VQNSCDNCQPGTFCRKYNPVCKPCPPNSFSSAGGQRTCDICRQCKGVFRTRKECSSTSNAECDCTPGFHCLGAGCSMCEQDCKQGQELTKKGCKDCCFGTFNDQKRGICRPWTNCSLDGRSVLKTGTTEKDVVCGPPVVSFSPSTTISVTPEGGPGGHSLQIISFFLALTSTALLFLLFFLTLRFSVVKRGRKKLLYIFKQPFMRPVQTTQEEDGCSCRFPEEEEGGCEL
T10 sequence (P25942 other isoform, or with tags, fused parts or gaps limits assumed): as the sequence (P25942 other isoform, or with tags, fused parts or gaps) above, with L4P, S19N, K50R, I66T, S67P, Y69F, E75G, A149V counted along it
T4 sequence (P20334 other isoform, or with tags, fused parts or gaps limits assumed): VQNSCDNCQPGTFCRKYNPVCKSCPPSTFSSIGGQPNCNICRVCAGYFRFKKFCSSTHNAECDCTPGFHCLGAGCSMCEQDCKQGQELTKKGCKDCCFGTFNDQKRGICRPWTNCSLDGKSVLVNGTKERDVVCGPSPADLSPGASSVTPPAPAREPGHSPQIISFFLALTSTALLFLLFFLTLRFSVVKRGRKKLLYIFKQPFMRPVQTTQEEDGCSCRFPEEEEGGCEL
T7 sequence (P20334 other isoform, or with tags, fused parts or gaps limits assumed): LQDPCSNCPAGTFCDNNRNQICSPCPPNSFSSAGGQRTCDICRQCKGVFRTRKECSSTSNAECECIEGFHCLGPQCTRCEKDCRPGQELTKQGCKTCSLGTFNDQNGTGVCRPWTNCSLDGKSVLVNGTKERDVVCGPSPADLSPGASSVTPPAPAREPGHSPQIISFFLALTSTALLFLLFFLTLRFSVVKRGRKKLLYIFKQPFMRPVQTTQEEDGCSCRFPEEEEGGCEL
T6 sequence (P20334 other isoform, or with tags, fused parts or gaps limits assumed): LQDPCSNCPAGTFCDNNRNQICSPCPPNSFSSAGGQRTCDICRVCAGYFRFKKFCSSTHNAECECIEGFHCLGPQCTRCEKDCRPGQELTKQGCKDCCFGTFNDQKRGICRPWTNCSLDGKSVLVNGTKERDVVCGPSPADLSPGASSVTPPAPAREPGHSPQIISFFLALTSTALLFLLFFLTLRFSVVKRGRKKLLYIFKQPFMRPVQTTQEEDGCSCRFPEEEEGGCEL
T5 sequence (P20334 other isoform, or with tags, fused parts or gaps limits assumed): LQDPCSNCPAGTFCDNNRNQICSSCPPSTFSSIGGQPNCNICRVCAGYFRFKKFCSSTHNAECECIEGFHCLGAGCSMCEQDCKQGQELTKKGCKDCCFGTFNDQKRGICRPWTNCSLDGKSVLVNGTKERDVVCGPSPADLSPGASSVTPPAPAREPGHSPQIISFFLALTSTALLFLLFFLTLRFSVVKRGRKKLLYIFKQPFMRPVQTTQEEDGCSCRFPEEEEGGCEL

B1: 1630/1631 (antibody, human IgG4 S228P, kappa, V domains shown)
VH: EVQLLESGGGLVQPGGSLRLSCAASGFTFGYSYMSWVRQAPGKGLEWVSSIGSGSSYTYYADSVKGRFTISRDNSKNTLYLQMNSLRAEDTAVYYCARVYSSPGIDYWGQGTLVTVSS
VL: DIQMTQSPSSLSASVGDRVTITCRASQSISSYLNWYQQKPGKAPKLLIYAASSLQSGVPSRFSGSGSGTDFTLTISSLQPEDFATYYCQQYYTWVPFTFGQGTKLEIKR
notes: the format in each assay is not restated
As to B1, the EC50 (in general, the concentration needed to bring the measured effect to its halfway point) in assay [1] is 0.85 nM; in [2], 0.41 nM; in assay [3], 0.4 nM; in [11], 0.23 to 0.34 nM. The “Ratio, cyno:human” value in assay [4] was determined as 0.63. For the same molecule, the “MFI antibody/isotype control, normalized to full-length human CD137” value came out at 0.11 in assay [5]; 0.1 in assay [6]; 0.25 in assay [7]; 0.91 in assay [8]; 0.85 in [9]; 0.35 in assay [10]. The Kd in assay [12] stood at 0.641 nM. Moreover, the koff (usually a measure of how fast the partners let go of each other) in assay [12] was found to be 0.00118 s⁻¹. In addition, the on-rate constant (kon) (as a rule, the second-order rate constant of association) in [12] came to 1.85e+06 M⁻¹ s⁻¹.
